Source: the supplement of paper PMC9170038

Columns and labels:
[1] = system: MS2 coat protein; experiment: apparent KD of MS2 coat protein, switch ON state; designed switch direction (-1 OFF switch, 1 ON switch): -1; higher = weaker reporter binding; details: FMN input: 0 or 200 uM; Eterna round: R93 (includes R88 designs)
In short: (§1)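 Apparent KD per design is the median of normalised cluster binding-curve fits. Designed RNA switches transcribed on-chip from Illumina sequencing clusters were titrated with SNAP-549-labelled MS2 coat protein in twofold steps from 0.7 or 1.5 nM to 3 µM, with 0.8–1.5 h down to 10–20 min per step. Buffer: 100 mM Tris-HCl pH 7.5, 80 mM KCl, 4 mM MgCl2, without or with constant ligand.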

[2] = system: MS2 coat protein; experiment: apparent KD of MS2 coat protein, switch OFF state (with FMN for OFF switches, without FMN for ON switches); designed switch direction (-1 OFF switch, 1 ON switch): -1; higher = weaker reporter binding; details: FMN input: 0 or 200 uM; Eterna round: R93 (includes R88 designs)
In short: as §1

[3] = system: MS2 coat protein; experiment: apparent KD of MS2 coat protein; designed switch direction (-1 OFF switch, 1 ON switch): 1; higher = weaker reporter binding
In short: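 For each design, the apparent KD is the median over clusters of curves fitted to normalised cluster fluorescence. Clusters held RNA switches with common flanks, transcribed on Illumina chips by stalled E. coli RNA polymerase. These were titrated with SNAP-549-labelled MS2 coat protein, doubling from 0.7 or 1.5 nM to 3 µM, without input, with 200 uM small-molecule ligand, or with an oligonucleotide input.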

[4] = input ligand: microRNA oligo, concentration not stated
[5] = Eterna round: R95, input ligand: FMN 200 uM
[6] = Eterna round: R95, input ligand: microRNA oligo, concentration not stated
[7] = Eterna round: R95, input ligand: none

Sequence: AGUCUGAGAGGAUAUACAUAGGAAAAAAAAGUCAGAUCCCUACAUGAGGAUCACCCAUGUAGAAGGCUCUGACA [Ex2 Design 148: Sub-opt 12]
- apparent KD of MS2 coat protein [1]: 13.9 nM
- apparent KD of MS2 coat protein [2]: 12.6 nM

Sequence: AGCUAGUCAGGAUAUACGAACAGGUCAAAAGACGUGAAGGGACAUGAGGAUCACCCAUGUAGAAGGGACUAGCA [Mat - Exclusion 2 - JL mod - D23]
- apparent KD of MS2 coat protein [1]: 39.6 nM
- apparent KD of MS2 coat protein [2]: 116 nM

Sequence: AAGAAGUGAGGAUAUACAUGAGGAUCACCCAUGUAAAAGAAAGAAAGGGAAAAGAAAAGUAGAAGGCACAAGAA [Usermaatre-setpenre-meryamun Ramesses VII]
- apparent KD of MS2 coat protein [1]: 36.5 nM
- apparent KD of MS2 coat protein [2]: 67.7 nM

Sequence: AAAAAGUCAGGAUAUACGGGAGUGCGAAAGCACAAAAAAAAACAUGAGGAUCACCCAUGUAGAAGGGACAAGAA [Married to this design, 61% 5]
- apparent KD of MS2 coat protein [1]: 46.1 nM
- apparent KD of MS2 coat protein [2]: 34.5 nM

Sequence: AAAAAGUGAGGAUAUACGUUAAAAAAAAAAAAAAAAAAGCAGUAGAAGGCACAUGAGGAUCACCCAUGUAAAAA [Ex4 Malc#2]
- apparent KD of MS2 coat protein [1]: 41.3 nM
- apparent KD of MS2 coat protein [2]: 26 nM

Sequence: UGUUGGCGAGGAUAUACAUGAGGAUCACCCAUGUGAGAGAAAAAAGUGAGAAAGAAAAGUAGAAGGCGCUGACU [salish99-ex3-08]
- apparent KD of MS2 coat protein [1]: 42.7 nM
- apparent KD of MS2 coat protein [2]: 211 nM

Sequence: CUCUUGUGAGGAUAUCCAUGAAAUGAAGUGAAAGAAAAGAAGGAGAAGGCACAUGAGGAUCACCCAUGUUAGAA [EteRNA is fun!]
- apparent KD of MS2 coat protein [1]: 49.6 nM
- apparent KD of MS2 coat protein [2]: 24.3 nM

Sequence: GUGCUCGUGUGAGGAUAUGCUGCCGGGUCGGCUGCAGAAGGUACUAUUAUACAUGAGGAUCACCCAUGUCGCUUUUCUCCGGUG [salish99_SSNG1_r04_918] (Eterna round: R96, puzzle: Same State NG 1)
- apparent KD of MS2 coat protein [3, 4]: 34.1 nM

Sequence: CAAGCUUGGGUCUUCCCGCUCGUCUACAAACAUGAGGAUCACCCAUGUAUACUCUUCGCAUCAAUUCUAUCUCUUGG [Onraenbi] (puzzle: Sensor for hsa-mir-208a)
- apparent KD of MS2 coat protein [3, 5]: 210 nM
- apparent KD of MS2 coat protein [3, 6]: 23.3 nM
- apparent KD of MS2 coat protein [3, 7]: 272 nM

Sequence: AUGCCAAAGCGAGGAUAUGGAGCCUUAUUGGCUCCAGAAGGUGUGACAUGAGGAUCACCCAUGUGGCAGUGGUCUAAUGACCAC [Eli NG1ss - 41] (Eterna round: R96, puzzle: Same State NG 1)
- apparent KD of MS2 coat protein ([3]; input ligand: FMN 200 uM): 63.3 nM
- apparent KD of MS2 coat protein [3, 4]: 64.6 nM
- apparent KD of MS2 coat protein ([3]; input ligand: none): 86.7 nM

Sequence: GGUUGUUAGUGAGGAUAUACGUACACUCUACAUGAGGAUCACCCAUGUUUUGCCCUUGAUUGUUGGUAGAAGGCACUUGGUUAU [JR_SSNG2_Sub050] (Eterna round: R96, puzzle: Same State NG 2)
- apparent KD of MS2 coat protein ([3]; input ligand: FMN 200 uM): 40.7 nM
- apparent KD of MS2 coat protein [3, 4]: 84.7 nM
- apparent KD of MS2 coat protein ([3]; input ligand: none): 87.3 nM

Sequence: AUAAAACAUGAGGAUCACCCAUGUGGCGCUGACACAGGAUAUCAUGCGGAACUGGACGUAUGAGAAGGGUGAUGCG [Diateedza] (puzzle: Same State 1)
- apparent KD of MS2 coat protein [3, 5]: 53 nM
- apparent KD of MS2 coat protein [3, 6]: 216 nM
- apparent KD of MS2 coat protein [3, 7]: 419 nM

Sequence: CUGAGCAAUCUAGGAUAUCACGUCGUUUAGACGUGAGAAGGAGAUCAUAACAUGAGGAUCACCCAUGUAUUACAUGAAGCUCAG [SSNG1/7-A3] (Eterna round: R96, puzzle: Same State NG 1)
- apparent KD of MS2 coat protein ([3]; input ligand: FMN 200 uM): 13.1 nM
- apparent KD of MS2 coat protein [3, 4]: 15.7 nM
- apparent KD of MS2 coat protein ([3]; input ligand: none): 18.8 nM

Sequence: AUAUGAGGAGCAGGAUAUGCGGAGAAGAAAGAAGCAGAAGGGCUCAUGGGACGACAUGAGGAUCACCCAUGUGCUCCGCGAUGA [AK SSNG1-V2-4] (Eterna round: R96, puzzle: Same State NG 1)
- apparent KD of MS2 coat protein ([3]; input ligand: FMN 200 uM): 69.9 nM
- apparent KD of MS2 coat protein [3, 4]: 29.5 nM
- apparent KD of MS2 coat protein ([3]; input ligand: none): 328 nM

Sequence: UAGAGAGGAAGCGAGGAUAUCGUGUGAGGAACAUGAGGAUCACCCAUGUGUGAUGUUGAGAGAGACGAGAAGGCGCAGGAAAUUA [JR_SS2_Sub082] (puzzle: Same State 2)
- apparent KD of MS2 coat protein [3, 6]: 116 nM

Sequence: GCUCGCACGAUGACCCACAUGAGGAUCACCCAUGUGCAUGGGCAGGAUAUCUAGAUUAAGGAUGUAGAGAAGGGUUGAGCGAGC [SameState NG3 #26] (Eterna round: R96, puzzle: Same State NG 3)
- apparent KD of MS2 coat protein ([3]; input ligand: FMN 200 uM): 1580 nM
- apparent KD of MS2 coat protein [3, 4]: 192 nM
- apparent KD of MS2 coat protein ([3]; input ligand: none): 533 nM

Sequence: CAGAGCCCAUGGGCCUGACAUGAGGAUCACCCAUGUGGCUUUGAGGAUAUAAGCGGAAACACCACUUAGAAGGCGAAGCCUAAC [Bequedbi] (Eterna round: R96, puzzle: Same State NG 3)
- apparent KD of MS2 coat protein ([3]; input ligand: FMN 200 uM): 489 nM
- apparent KD of MS2 coat protein [3, 4]: 37.1 nM
- apparent KD of MS2 coat protein ([3]; input ligand: none): 11.3 nM
